Results published in the Immune Epitope Database (IEDB).

Assays:
Assay in all cases: IEDB peptide-MHC binding, purified MHC/competitive/radioactivity; filed as Kd, often an IC50 or EC50 that approximates it; ≥ and ≤ were set here for values at or beyond the usual limits of such assays
HLA-A*02:02 = target: HLA-A*02:02
HLA-A*02:03 = target: HLA-A*02:03
HLA-A*02:06 = target: HLA-A*02:06
HLA-A*03:01 = target: HLA-A*03:01
HLA-A*11:01 = target: HLA-A*11:01
HLA-A*31:01 = target: HLA-A*31:01
HLA-A*33:01 = target: HLA-A*33:01
HLA-A*68:01 = target: HLA-A*68:01
[1] = source organism: Vaccinia virus WR
[2] = source organism: Dengue virus 2 Jamaica/1409/1983
[3] = source organism: Mammarenavirus brazilense
[4] = source organism: Dengue virus 1 Brazil/97-11/1997
[5] = source organism: Lymphocytic choriomeningitis virus (strain Armstrong)
[6] = source organism: SARS coronavirus Tor2
[7] = source organism: Dengue virus 4 Philippines/H241/1956
[8] = source organism: Vaccinia virus Copenhagen

QLVKDESIQL gave a Kd (HLA-A*02:02; [1]) of 157 nM, a Kd (HLA-A*02:03; [1]) of 130 nM and a Kd (HLA-A*02:06; [1]) of 1810 nM.

TVQEFIFSAL was tested, and the Kd (HLA-A*02:02; [1]) was 80.7 nM, the Kd (HLA-A*02:03; [1]) was 90 nM and the Kd (HLA-A*02:06; [1]) was 43.9 nM.

With KQLGQVMLLI the Kd (HLA-A*02:06; [2]) was 11 nM.

RSASGGVYL was tested, and the Kd (HLA-A*02:02; [3]) was 278 nM, the Kd (HLA-A*02:03; [3]) was 14500 nM and the Kd (HLA-A*02:06; [3]) was 13600 nM.

With YQNEVTPEYI the Kd (HLA-A*02:02; [1]) was 2.74 nM, the Kd (HLA-A*02:03; [1]) was 0.209 nM and the Kd (HLA-A*02:06; [1]) was 2.59 nM.

SLCPTKKLV was tested, and the Kd (HLA-A*02:02; [1]) was 3160 nM, the Kd (HLA-A*02:03; [1]) was 2660 nM and the Kd (HLA-A*02:06; [1]) was 11900 nM.

For SMVSAGSGEV, the Kd (HLA-A*02:03; [4]) was 144 nM.

In the case of KCMSAALKNL, the Kd (HLA-A*02:02; [5]) is reported as 57.9 nM, the Kd (HLA-A*02:03; [5]) is reported as 192 nM and the Kd (HLA-A*02:06; [5]) is reported as 14000 nM.

In the case of VTPEYIKDL, the Kd (HLA-A*02:02; [1]) is reported as 10400 nM, the Kd (HLA-A*02:03; [1]) is reported as ≥ 78100 nM and the Kd (HLA-A*02:06; [1]) is reported as 1760 nM.

Work on LLVTLAILTA yielded a Kd (HLA-A*02:02; [6]) of 4.39 nM, a Kd (HLA-A*02:03; [6]) of 42.9 nM and a Kd (HLA-A*02:06; [6]) of 32.2 nM.

FMTATPPGAT gave a Kd (HLA-A*02:03; [7]) of 29.4 nM.

Sequence TTTFITVLT has a Kd (HLA-A*02:02; [1]) of 2460 nM, a Kd (HLA-A*02:03; [1]) of 8590 nM and a Kd (HLA-A*02:06; [1]) of 1090 nM.

NLFDIPLLT gave a Kd (HLA-A*02:02; [8]) of 135 nM, a Kd (HLA-A*02:03; [8]) of 36.3 nM and a Kd (HLA-A*02:06; [8]) of 1540 nM.

In the case of DTEFINKFL, the Kd (HLA-A*02:02; [1]) is reported as 7420 nM, the Kd (HLA-A*02:03; [1]) is reported as ≥ 42700 nM and the Kd (HLA-A*02:06; [1]) is reported as ≥ 77100 nM.

Work on LSYSQTMLL yielded a Kd (HLA-A*02:02; [5]) of 2110 nM, a Kd (HLA-A*02:03; [5]) of 11300 nM and a Kd (HLA-A*02:06; [5]) of 3720 nM.

With ETFPNVHEHI the Kd (HLA-A*02:02; [1]) was 8020 nM, the Kd (HLA-A*02:03; [1]) was 6620 nM and the Kd (HLA-A*02:06; [1]) was ≥ 69800 nM.

In the case of YLPEVISTIA, the Kd (HLA-A*02:02; [1]) is reported as 10.9 nM, the Kd (HLA-A*02:03; [1]) is reported as 0.955 nM and the Kd (HLA-A*02:06; [1]) is reported as 17.7 nM.

For YLSDSDNIKI, the Kd (HLA-A*02:02; [1]) was 16.3 nM, the Kd (HLA-A*02:03; [1]) was 109 nM and the Kd (HLA-A*02:06; [1]) was 906 nM.

DQTHIKTIAV was tested, and the Kd (HLA-A*02:02; [1]) was 2170 nM, the Kd (HLA-A*02:03; [1]) was 390 nM and the Kd (HLA-A*02:06; [1]) was 1000 nM.

LVFNSISARA was tested, and the Kd (HLA-A*02:02; [1]) was 1270 nM, the Kd (HLA-A*02:03; [1]) was 254 nM and the Kd (HLA-A*02:06; [1]) was 702 nM.

TLFYCDERDA showed a Kd (HLA-A*02:02; [1]) of 271 nM, a Kd (HLA-A*02:03; [1]) of 2150 nM and a Kd (HLA-A*02:06; [1]) of 19500 nM.

LLTDTIESA was tested, and the Kd (HLA-A*02:02; [1]) was 16.6 nM, the Kd (HLA-A*02:03; [1]) was 10.5 nM and the Kd (HLA-A*02:06; [1]) was 5.88 nM.

LMDCIIFES was tested, and the Kd (HLA-A*02:02; [5]) was 30.1 nM, the Kd (HLA-A*02:03; [5]) was 825 nM and the Kd (HLA-A*02:06; [5]) was 300 nM.

For IAIFNNRNLA, the Kd (HLA-A*02:02; [1]) was 3360 nM, the Kd (HLA-A*02:03; [1]) was 1480 nM and the Kd (HLA-A*02:06; [1]) was 890 nM.

LVSKHWELT was tested, and the Kd (HLA-A*02:02; [1]) was 12200 nM, the Kd (HLA-A*02:03; [1]) was 14900 nM and the Kd (HLA-A*02:06; [1]) was ≥ 77100 nM.

Work on PLNEAIMAV yielded a Kd (HLA-A*02:03; [2]) of 18.3 nM.

WLKDSAIMV showed a Kd (HLA-A*02:02; [1]) of 191 nM, a Kd (HLA-A*02:03; [1]) of 27.9 nM and a Kd (HLA-A*02:06; [1]) of 2280 nM.

With YLSSRAKLAL the Kd (HLA-A*02:03; [7]) was 28.1 nM.

RLAANAICSA gave a Kd (HLA-A*02:03; [2]) of 127 nM.

MLDDFSAGA was tested, and the Kd (HLA-A*02:02; [1]) was 68.4 nM, the Kd (HLA-A*02:03; [1]) was 73.1 nM and the Kd (HLA-A*02:06; [1]) was 114 nM.

In the case of SLFPLCLSTT, the Kd (HLA-A*02:03; [4]) is reported as 0.3 nM.

For NIKISLNEI, the Kd (HLA-A*02:02; [1]) was 1670 nM, the Kd (HLA-A*02:03; [1]) was 31 nM and the Kd (HLA-A*02:06; [1]) was 1500 nM.

IVILFIMFM was tested, and the Kd (HLA-A*02:02; [1]) was 1860 nM, the Kd (HLA-A*02:03; [1]) was 1680 nM and the Kd (HLA-A*02:06; [1]) was 741 nM.

Work on LQQNNSFII yielded a Kd (HLA-A*02:02; [1]) of 11700 nM, a Kd (HLA-A*02:03; [1]) of 5170 nM and a Kd (HLA-A*02:06; [1]) of 423 nM.

With SIFVSTMPV the Kd (HLA-A*02:02; [1]) was 37.5 nM, the Kd (HLA-A*02:03; [1]) was 6.58 nM and the Kd (HLA-A*02:06; [1]) was 81.9 nM.

GLKSKTHAV gave a Kd (HLA-A*02:03; source organism: Homo sapiens) of 1.58 nM.

SVKNLILNFL showed a Kd (HLA-A*02:02; [1]) of 1040 nM, a Kd (HLA-A*02:03; [1]) of 163 nM and a Kd (HLA-A*02:06; [1]) of 551 nM.

Work on GLKIEEIEKV yielded a Kd (HLA-A*02:02; [1]) of 14.9 nM, a Kd (HLA-A*02:03; [1]) of 6.61 nM and a Kd (HLA-A*02:06; [1]) of 198 nM.

Work on LLDEPLSPDT yielded a Kd (HLA-A*02:02; [1]) of 8510 nM, a Kd (HLA-A*02:03; [1]) of 10100 nM and a Kd (HLA-A*02:06; [1]) of 7840 nM.

EAKTHFSTT was tested, and the Kd (HLA-A*02:02; [1]) was ≥ 36600 nM, the Kd (HLA-A*02:03; [1]) was ≥ 25100 nM and the Kd (HLA-A*02:06; [1]) was ≥ 55300 nM.

For WVMDTLNGIM, the Kd (HLA-A*02:02; [1]) was 1330 nM, the Kd (HLA-A*02:03; [1]) was 194 nM and the Kd (HLA-A*02:06; [1]) was 129 nM.

With DFIRRKYLIY the Kd (HLA-A*03:01; [1]) was 8650 nM, the Kd (HLA-A*11:01; [1]) was ≥ 20200 nM and the Kd (HLA-A*31:01; [1]) was ≥ 70000 nM. For the same sequence, the Kd (HLA-A*33:01; [1]) was 10400 nM and the Kd (HLA-A*68:01; [1]) was 1100 nM.

SLVSKHWELT was tested, and the Kd (HLA-A*02:02; [1]) was 409 nM, the Kd (HLA-A*02:03; [1]) was 34.6 nM and the Kd (HLA-A*02:06; [1]) was 2680 nM.

With FMRFFQLLR the Kd (HLA-A*03:01; [1]) was 141 nM, the Kd (HLA-A*11:01; [1]) was 354 nM and the Kd (HLA-A*31:01; [1]) was 0.668 nM. The Kd (HLA-A*33:01; [1]) was 1.97 nM and the Kd (HLA-A*68:01; [1]) was 11.7 nM.

SSYSLFDMSK showed a Kd (HLA-A*03:01; [6]) of 18 nM, a Kd (HLA-A*11:01; [6]) of 3.25 nM and a Kd (HLA-A*31:01; [6]) of 253 nM. For the same sequence, the Kd (HLA-A*33:01; [6]) was 10100 nM and the Kd (HLA-A*68:01; [6]) was 42.2 nM.

With NVAYNVVNK the Kd (HLA-A*03:01; [6]) was 469 nM, the Kd (HLA-A*11:01; [6]) was 121 nM and the Kd (HLA-A*31:01; [6]) was 7170 nM. The Kd (HLA-A*33:01; [6]) was 19300 nM and the Kd (HLA-A*68:01; [6]) was 30.8 nM.

With ELYVSSSYK the Kd (HLA-A*03:01; [1]) was 0.73 nM, the Kd (HLA-A*11:01; [1]) was 12.4 nM and the Kd (HLA-A*31:01; [1]) was ≥ 77900 nM. For the same sequence, the Kd (HLA-A*33:01; [1]) was ≥ 54200 nM and the Kd (HLA-A*68:01; [1]) was 6.71 nM.

With VQMLSDTLK the Kd (HLA-A*03:01; [6]) was 74.3 nM, the Kd (HLA-A*11:01; [6]) was 18.7 nM and the Kd (HLA-A*31:01; [6]) was 413 nM. For the same sequence, the Kd (HLA-A*33:01; [6]) was ≥ 77700 nM and the Kd (HLA-A*68:01; [6]) was 2480 nM.

With PFTQHLLNIR the Kd (HLA-A*03:01; [1]) was ≥ 22300 nM, the Kd (HLA-A*11:01; [1]) was 2890 nM and the Kd (HLA-A*31:01; [1]) was 167 nM. For the same sequence, the Kd (HLA-A*33:01; [1]) was 6510 nM and the Kd (HLA-A*68:01; [1]) was 224 nM.

ESNIEIMDK was tested, and the Kd (HLA-A*03:01; [1]) was 15500 nM, the Kd (HLA-A*11:01; [1]) was 10800 nM and the Kd (HLA-A*31:01; [1]) was ≥ 77900 nM. For the same sequence, the Kd (HLA-A*33:01; [1]) was ≥ 77700 nM and the Kd (HLA-A*68:01; [1]) was 11.2 nM.

In the case of ELAELLEMKY, the Kd (HLA-A*03:01; [1]) is reported as 14200 nM, the Kd (HLA-A*11:01; [1]) is reported as ≥ 29500 nM and the Kd (HLA-A*31:01; [1]) is reported as ≥ 50800 nM. The Kd (HLA-A*33:01; [1]) was ≥ 70000 nM and the Kd (HLA-A*68:01; [1]) was 2840 nM.
